The target in assay [1] is T1, His-tagged CD47 extracellular domain (ECD) protein (Abclonal, CAT #RP01306) (human, UniProt Q08722 19-139).
T1 construct: extracellular domain; Bought; also called recombinant human CD47 protein with His-tag; His-tag human CD47 ECD protein
The assay can be described thus: ELISA, immobilized His-tagged CD47 ECD, fusion protein as analyte.

The target in assay [2] is T2, human CD47 (cluster of differentiation 47), on cells (human, UniProt Q08722 19-323).
T2 construct: whole, on cells; also called IAP; integrin-associated protein
The assay can be described thus: FACS on primary human platelets, pH 7.3. How it is done:
Human primary platelets were seeded into 96-well plate at 1×10⁶/well and incubated with Fc blocking antibody at room temperature. […] After washing the platelets with 1×PBS+2% FBS at pH 7.3, FITC-labelled anti-human IgG Fc secondary antibody (Abcam, CAT #ab6854) were added and incubated at 4° C. for 30 minutes at pH 7.3. After washing, the platelets were then analyzed by FACS in 1×PBS+2% FBS at pH 7.3.

From patent publication US20260274921A1 (ADAPTOCUE, published 2026) come the findings set out here.

B1: MP-24, SIRPαV2 IgV WT-IgG1 Fc hole silent + aCD3 VH-CH1-IgG1 Fc knob silent + aCD3 VL-CL (bispecific antibody)
chain: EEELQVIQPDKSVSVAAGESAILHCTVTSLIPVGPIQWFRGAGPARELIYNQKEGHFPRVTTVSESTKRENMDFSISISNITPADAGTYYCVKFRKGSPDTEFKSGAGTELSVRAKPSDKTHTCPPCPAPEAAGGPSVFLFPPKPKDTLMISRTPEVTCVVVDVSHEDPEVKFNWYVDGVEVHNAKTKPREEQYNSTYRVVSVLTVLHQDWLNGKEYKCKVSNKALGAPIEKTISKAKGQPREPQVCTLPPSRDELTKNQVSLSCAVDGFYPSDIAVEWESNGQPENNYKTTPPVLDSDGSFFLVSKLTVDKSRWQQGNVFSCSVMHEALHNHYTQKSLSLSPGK
heavy: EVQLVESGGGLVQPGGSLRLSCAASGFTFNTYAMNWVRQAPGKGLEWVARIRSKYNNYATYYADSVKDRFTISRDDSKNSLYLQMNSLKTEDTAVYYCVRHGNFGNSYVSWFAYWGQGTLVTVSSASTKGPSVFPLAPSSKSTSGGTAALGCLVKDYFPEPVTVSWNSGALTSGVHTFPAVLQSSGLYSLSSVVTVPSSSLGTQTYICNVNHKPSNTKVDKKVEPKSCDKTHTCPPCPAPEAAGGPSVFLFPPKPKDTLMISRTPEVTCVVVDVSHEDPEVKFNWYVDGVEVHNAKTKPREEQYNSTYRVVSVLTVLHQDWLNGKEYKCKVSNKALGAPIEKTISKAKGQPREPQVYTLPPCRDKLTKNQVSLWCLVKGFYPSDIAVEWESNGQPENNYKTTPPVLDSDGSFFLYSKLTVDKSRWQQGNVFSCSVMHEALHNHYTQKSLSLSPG
light: QAVVTQEPSLTVSPGGTVTLTCRSSTGAVTTSNYANWVQQKPGQAPRGLIGGTNKRAPWTPARFSGSLLGGKAALTITGAQAEDEADYYCALWYSNLWVFGGGTKLTVLGQPKAAPSVTLFPPSSEELQANKATLVCLISDFYPGAVTVAWKADSSPVKAGVETTTPSKQSNNKYAASSYLSLTPEQWKSHRSYSCQVTHEGSTVEKTVAPTECS
notes: Format FV-67; one wild type SIRPαV2 IgV monomer; also called monovalent wild type SIRPαV2 IgV-IgG1 Fc protein
As for B1, the binding result in assay [1] and in assay [2] was “binds” in each case.
